According to patent publication US20260265360A1, “USE OF ANTI-FAM19A5 ANTAGONISTS FOR TREATING HEARING DISORDERS” (NEURACLE SCIENCE CO., LTD., priority 2023, published 2026):

B1: 2-13: anti-FAM19A5 antibody; VH SEQ ID NO: 35, VL SEQ ID NO: 39 (antibody, V domains shown)
VH: AVTLDESGGGLQTPGGALSLVCKASGFTFSSHGMFWVRQTPGKGLEYVAEITNDGSGTNYGSAVKGRATISRDNGQSTVRLQLNNLRAEDTGTYFCARSTYECPGGFSCWGDTGQIDAWGHGTEVIVSS
VL: ALTQPSSVSANPGETVKITCSGGSYSYGWFQQKSPGSALVTVIYWDDERPSDIPSRFSGALSGSTNTLTITGVQADDEAVYFCGTEDISGTAGVFGAGTTLTVL
modifications: 2-13 VH; 2-13 VL
B2: 1-30: anti-FAM19A5 antibody, de-immunized variant of 3-2; VH SEQ ID NO: 235, VL SEQ ID NO: 240 (antibody, V domains shown)
VH: AVTLDESGGGLQTPGGALRLSCKASGFDFESFNMFWVRQAPGKGLEYVSQISSSEEDENYAPAVKGRATISRDNGQSTLYLQMNSLRAEDTGTYYCAKSSYDCPYGHCSSGVDSAGEIDAWGHGTEVIVSS
VL: ALTQPSSVSANPGETVKITCSGGGSEEEQYYYGWYQQKPGSAPVTLIYQDEERPSDIPSRFSGSTSGSTATLTITGVQAGDEADYYCGSWDSEDEDHFGAGTTLTVL
modifications: Low-PI VH, 1-30 VH, 1-17 VH, 1-32 VH, 4-11 VH, 6-10 VH; 1-30 VL

Assays:
FAM19A5 antigen = FAM19A5 antigen (Homo sapiens, UniProt Q7Z5A7); assay: Cross-competition two-site sandwich ELISA; type: binding; conditions: antibodies 1-65, P2-A03, P2-F11, 13B4, 2-13, 3-2; cross-competition = S/N ratio lower than 2
Sequence of FAM19A5 antigen (Q7Z5A7 44-132): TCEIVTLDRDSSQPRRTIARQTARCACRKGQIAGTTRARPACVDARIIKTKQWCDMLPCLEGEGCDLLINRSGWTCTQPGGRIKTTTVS
Description: The term “S/N” refers to the signal to noise ratio, which is measured as follows: [O.D. of 10 ng/ml antigen]/[O.D. of 0 ng/ml antigen].
Next, a two-site sandwich ELISA was used as described below to assess whether the different anti-FAM19A5 antibodies with similar binding epitopes cross-compete with each other.
First, the indicated anti-FAM19A5 antibodies were diluted in 1×PBS to a concentration of 10 μg/mL. The diluted anti-FAM19A5 antibodies (10 μg/mL in 1×PBS) (“capture antibody”) were used to coat the 96-well plates (100 μL/well) at 37° C. for approximately 1 hour. After the incubation, the plates were washed with the washing buffer (0.01% Tween-20/PBS; also called 0.01% PBST) for a total of five washes, blocked with the blocking solution (5% BSA/PBS; also called 5% PBSA) (250 μL/well) for one hour at 37° C., and then washed again. Next, 100 μg/mL of the FAM19A5 antigen (diluted in PBS containing 5% BSA, 0.01% Tween-20; also called 5% PBSAT; “diluent buffer) was added to each of the wells, and the 96-well plates were incubated for 2 hours at 37° C. After the incubations, the plates were washed using 0.01% PBST for a total of five washes. After the final wash, the indicated biotinylated anti-FAM19A5 antibodies (“detection antibody”) (diluted to lug/mL in 5% PBSAT) were added to the relevant wells (100 μL volume) and the plates were incubated for an additional 1 hour at 37° C. Afterwards, the plates were washed again with 0.01% PBST (five total washes). Next, 100 μL of the diluted (1/2000 in 5% PBSAT) Streptavidin-HRP (1 mg/mL, Sigma, USA) was added to the wells, and the plates were incubated for 30 minutes at room temperature. The plates were then washed and treated with 100 μL of the TMB substrate ([…], Thermo Fisher Scientific). After an additional 30-minute incubation at room temperature, the color change reaction was induced by the addition of the TMB substrate. This reaction was stopped using 50 μL of sulfuric acid (2N H2SO4), and the extent of color change was detected via absorption at 450 nm with reference wavelength at 620 nm using a 96 well microplate reader (Molecular Device).

[1] = test system: noise-induced hearing loss mouse model; assay: Noise-induced hearing loss mouse model, first antibody dose one day prior to noise exposure; type: in vivo
Description: FIGS. 6A, 6B, 6C, 6D, and 6E show the therapeutic effect of FAM19A5 antagonists on auditory brainstem response (ABR) threshold in a noise-induced hearing loss mouse model. FIG. 6A provides a schematic of the experimental design. As shown, anti-FAM19A5 antibody (1-30) or control human IgG antibody was administered to the mice intravenously once a week (30 mg/kg per dose) for a total of five administrations. The first dose of the antibodies was administered one day before noise exposure. For noise-induced hearing loss induction, the animals were subjected to temporary threshold shift (TTS) of 105 decibels for 30 minutes. ABR (i.e., hearing test) was measured both prior to the initial administration of the antibodies and then at various times after administration. FIGS. 6B, 6C, 6D, and 6E provide comparison of ABR threshold between mice administered with the control human IgG (circle), anti-FAM19A5 antibody (square), or before noise (triangle) at the following time points: (i) before TTS exposure, (ii) 1 day after TTS exposure, (iii) 2 weeks after TTS exposure, (iv) 4 weeks after TTS exposure, and […], respectively. ABR threshold was measured at a frequency ranging from 4 kHz to 64 kHz.
FIGS. 7A, 7B, 7C, and 7D show the therapeutic effect of FAM19A5 antagonists on distortion product […] emission (DPOAE) threshold in a noise-induced hearing loss mouse model. The overall experimental design is the same as that described in FIG. 6A. DPOAE threshold data was measured after antibody administration and: (i) before TTS exposure (FIG. 7A), (ii) 1 day after TTS exposure (FIG. 7B), (iii) 2 weeks after TTS exposure (FIG. 7C), and (iv) 4 weeks after TTS exposure (FIG. 7D). DPOAE threshold was measured at a frequency ranging between about 4 kHz to about 32 kHz.
FIGS. 8A and 8B show the effect of FAM19A5 antagonists on distortion product […] emission (DPOAE) amplitude in a noise-induced hearing loss mouse model. The overall experimental design is the same as that described in FIG. 6A. DPOAE amplitude data was measured after antibody administration at 2 weeks after TTS exposure. FIG. 8A provides a comparison of the average DPOAE amplitude value as a function of different noise level for the following groups: (i) before noise (triangle), (ii) control antibody treated (circle), and (iii) anti-FAM19A5 treated (square). FIG. 8B provides a spectral level profile for each of the groups.
FIGS. 11A and 11B show the effect of FAM19A5 antagonists on ABR I/O function in a noise-induced hearing loss mouse model. The overall experimental design is the same as that described in FIG. 6A. FIG. 11A provides wave I amplitude before noise (left graph) and at 2 weeks after noise (right graph).
FIG. 11B provides wave I amplitude at 4 weeks after noise. For each of FIGS. 11A and 11B, the following groups of animals are shown: (i) control antibody treated (circle) and (ii) anti-FAM19A5 antibody treated (square). For comparison purposes, wave I amplitude before noise exposure is also provided at the 2 weeks and 4 weeks timepoints (“BN”).
FIGS. 12A and 12B provide immunohistochemistry (IHC) analysis of the therapeutic effects of anti-FAM19A5 antibody (1-30) and control human IgG antibody administration in the middle cochlear region 8 weeks after temporary threshold shift (TTS) (i.e., noise induction).
To assess whether the FAM19A5 antagonists described herein can treat hearing loss, a noise-induced hearing loss mouse model was used. Briefly, for hearing loss induction, the animals were exposed to a temporary threshold shift (TTS) of 105 decibels for 30 minutes. An anti-FAM19A5 antibody (1-30 antibody) or a control human IgG antibody was intravenously administered to C57BL/6 mice (8 weeks old) once weekly for 5 total administrations (30 mg/kg per dose). […] To assess the effect on hearing loss, ABR threshold, DPOAE threshold, and/or DPOAE amplitude were measured at various time points (see “hearing test” in FIG. 6A). […]

Molecule | cross-competition with the other anti-FAM19A5 antibodies (FAM19A5 antigen) | DPOAE amplitude vs control antibody ([1]; 2 weeks after TTS exposure, about 18 kHz frequency) | number of ribbon bodies per cell in IHC and OHC vs hIgG ([1]; 8 weeks after TTS) | ABR threshold values vs values prior to TTS exposure ([1]; all time points assessed after TTS, 30 mg/kg i.v. weekly x5, first dose one day before noise) | DPOAE threshold values vs control IgG antibody ([1]; before and 1 day, 2 weeks, 4 weeks after TTS, 30 mg/kg i.v. weekly) | increase in ABR threshold after TTS exposure, vs control antibody ([1]; day 1 post TTS (105 dB, 30 min), 30 mg/kg i.v. weekly x5, first dose one day before noise) | ABR wave I amplitude vs control antibody ([1]; four weeks post noise exposure) | expression of CtBP2 (cochlear ribbon synapse marker) in the IHC vs control antibody ([1]; middle cochlear region, 8 weeks after TTS) | ABR wave I amplitude vs control antibody ([1]; two weeks post noise exposure)
B1 | did not cross-compete |  |  |  |  |  |  |  | 
B2 |  | higher DPOAE amplitude | increased number of ribbon bodies per cell | comparable to corresponding values prior to the TTS exposure | no noticeable differences | much more dramatic in animals treated with the control antibody | noticeable differences were observed | noticeable increase | noticeable differences were observed
